B1: PBXIP1 (parent)
chain: FGEDGIFRHDRLRFRDFVDALEDS
B2: ATL3 (parent)
chain: YGLQGGMAFLDKRLQVKEHQHEEI

Variants of: B1
Test: protein stability index of a GFP-peptide fusion (GPS, HEK-293T) (PSI 1-6); higher = more stable
Conditions: c terminus: a fixed tail appended
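Also: lentivirally expressed fusions sorted by FACS into six bins by GFP to DsRed ratio, PSI derived from sequencing read proportions per bin multiplied by bin number.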

Variant | protein stability index
F17Q | 3.58
F17I | 3.19
F17S | 3.69
F17H | 3.25
F17R | 3.69
F17P | 3.44
F17A | 3.46
F17L | 2.77
F17V | 3.38
F17G | 3.57
F17E | 3.98
F17N | 3.55
F17Y | 2.97
F17W | 2.79
F17K | 3.09
F17M | 3.38
F17T | 3.61
F17C | 3.12
F17D | 3.68
L21E | 3.67
L21C | 3.48
L21M | 3.12
L21K | 3.3

Variant | protein stability index
L21G | 2.97
L21V | 2.94
L21S | 3.24
L21P | 3.65
L21D | 3.68
L21I | 3.07
L21N | 3.73
L21T | 3.13
L21R | 3.01
L21A | 3.32
L21F | 2.73
L21Y | 3.18
L21W | 2.57
L21H | 3
L21Q | 3.57
A20R | 3.01
A20C | 3.05
A20H | 2.42
A20S | 3.18
A20L | 2.09
A20T | 2.21
A20K | 3.6
A20F | 2.38

Variant | protein stability index
A20M | 2.13
A20V | 2.49
A20W | 2.46
A20G | 3.41
A20Y | 2.11
A20Q | 2.95
A20N | 2.78
A20D | 3.23
A20P | 3.06
A20I | 2.28
A20E | 3.25
D19E | 2.6
D19Y | 2.35
D19L | 1.61
D19H | 2.9
D19M | 2.56
D19V | 1.91
D19N | 2.65
D19I | 1.91
D19R | 2.48
D19C | 2.47
D19W | 2.18
D19A | 2.59

Variant | protein stability index
D19K | 2.9
D19Q | 2.49
D19P | 2.53
D19S | 2.4
D19G | 2.37
D19F | 2.22
D19T | 2.61
D16Y | 1.88
D16W | 1.85
D16V | 2.43
D16T | 2.08
D23E | 2.61
D23I | 1.93
D23G | 3.02
D23S | 2.22
D23F | 1.92
D23N | 2.94
D23Q | 2.82
D23K | 2.23
D23T | 2.55
D23Y | 2.62
D23H | 2.34
D23M | 2.32

Variant | protein stability index
D23W | 1.84
D23P | 2.35
D23V | 2.29
D23L | 2.42
D23A | 2.22
D23C | 2.21
D23R | 1.98
V18P | 2.94
V18H | 2.53
V18G | 3.16
V18E | 3.5
V18Q | 3.49
V18K | 3.13
V18C | 3.3
V18M | 2.87
V18L | 3.32
V18I | 2.17
V18N | 3.14
V18F | 2.45
V18A | 2.73
V18R | 3.05
V18D | 3.1
V18T | 3.27

Variant | protein stability index
V18Y | 2.4
V18S | 3.11
V18W | 2.07
S24G | 2.32
S24R | 2.76
S24A | 2.21
S24P | 2.51
S24H | 2.66
S24Q | 2.74
S24E | 2.24
S24W | 1.93
S24V | 2.43
S24M | 2.2
S24N | 3.15
S24I | 2.29
S24K | 3.08
S24L | 2.32
S24T | 2.85
S24Y | 1.78
S24C | 3.48
S24F | 1.8
S24D | 3.5
E22L | 2.97

Variant | protein stability index
E22T | 2.08
E22D | 2.26
E22Y | 2.11
E22C | 1.93
E22Q | 2.24
E22F | 1.65
E22W | 1.97
E22M | 1.89
E22R | 2.38
E22P | 2.81
E22H | 2.37
E22G | 2.05
E22A | 2
E22S | 2.71
E22I | 1.76
E22V | 2.2
E22N | 2.56
E22K | 2.08

Variants of: B2
Test: as above
Conditions: c terminus: a fixed tail appended

Variant | protein stability index
Y1F | 2.51
Y1L | 3.38
Y1C | 2.19
Y1E | 4.35
Y1I | 4.07
Y1M | 4.29
Y1H | 3.51
Y1G | 4.73
Y1A | 4.57
Y1K | 4.26
Y1D | 5.03
